Results published in US20230050773A1 (AstraZeneca / MedImmune, published 2023).
Residue numbers refer to the chain shown, from its start.

B1: NB0919 (antibody, V domains shown)
VH: QVQLQESGPGLVKPSDTLSLTCTVSGFSFSTDYWWSWIRQPPGKGLEWIGYIYVGTSGDTYYNPSLKSRVTISVDTSKNQFSLKLSSVTAADTAVYYCAGADNPYDYFNLWGQGTLVTVSS
VL: DIQMTQSPSSLSASVGDRVTITCRASETISGYLNWYQQKPGKAPKLLIYRASSLQSGVPSRFSGSGSGTDFTLTISSLQPEDFATYYCQQGYSYSDTDNVFGGGTKVEIK
notes: Humanized variant of B7 by CDR grafting; also called Clone 919
B2: NB0937 (antibody, V domains shown)
VH: EVQLVESGGGLVQPGGSLRLSCAASGFSFSTDYWMSWVRQAPGKGLEWVSSIYVGTSGDTYYADSVKGRFTISRDNSKNTLYLQMDSLRAEDTAIYYCAGADNPYDYFNLWGQGTLVTVS
VL: B1 VL with L11V, N34A, Q55E, D70E, E81D
notes: Humanized variant of B7 by CDR grafting; also called Clone 937
B3: NB0920 (antibody, V domains shown)
VH: B1 VH
VL: B1 VL with N34A, A43V, S53T, F83V
notes: Humanized variant of B7 by CDR grafting; also called Clone 920
B4: NB0938 (antibody, V domains shown)
VH: B2 VH
VL: B1 VL
notes: Humanized variant of B7 by CDR grafting; also called Clone 938

Each binder was assayed against T1, recombinant human LIF (Leukemia Inhibitory Factor) (human, UniProt P15018 23-202) (assay: cell-based or functional assay).
T1 sequence (P15018 23-202 limits assumed, form in doubt): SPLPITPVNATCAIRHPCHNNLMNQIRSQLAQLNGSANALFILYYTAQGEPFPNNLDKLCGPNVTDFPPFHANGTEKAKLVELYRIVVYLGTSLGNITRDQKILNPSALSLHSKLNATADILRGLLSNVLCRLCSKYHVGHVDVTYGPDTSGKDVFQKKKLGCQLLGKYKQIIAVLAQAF

pSTAT3 inhibition assay IC50 (nM) | Binder
52.7 | B1
7.22 | B2
38.7 | B3
11 | B4

These binders were tested against T1, recombinant human LIF (Leukemia …) (assay: ELISA, coated recombinant human LIF, anti-human Fc HRP detection).
Procedure: Recombinant human LIF was coated on maxisorp plates overnight at 4° C. The next day, plates were blocked with casein blocking buffer for 1 hour at 37° C. Titrations of each antibody were added to the plates and allowed to bind for 1 hour at room temperature. Plates were washed 4× with PBST followed by incubation with an HRP conjugated anti-human Fc secondary for 30 minutes at RT. Plates were then washed again with 4×PBST and then developed using TMB substrate and 1M HCl.

EC50 [nM] | Binder
0.17 | B1
0.08 | B2
0.12 | B3
0.13 | B4

Each binder was assayed against T1, recombinant human LIF (Leukemia …) (assay: BLI (Octet), antibody on anti-human Fc biosensors, human LIF in solution).
Procedure: Affinities were determined using biolayer interferometry on the Octet platform. Anti-human Fc biosensors were used to load chimeric B7 and humanized variants, and titrations of recombinant human LIF (200 nM→0 nM) were associated for 180 seconds followed by a 300 second dissociation step. Affinity measurements are recorded in Table 3.

Kd [nM] | Binder
19.6 | B1
5.02 | B2
9.97 | B3
10.6 | B4

What follows are binders tested against T1, recombinant human LIF (Leukemia …) (assay: LIF:LIFR blocking ELISA, coated human LIFR, biotinylated human LIF premixed with antibody).
Procedure: Recombinant human LIFR was coated on maxisorp plates overnight at 4 C. The next day, plates were blocked with casein blocking buffer for 1 hr at 37 C. During this period, titrations of each antibody were mixed with biotinylated recombinant human LIF. Following blocking, the antibody/antigen premix was added to the plates and allowed to incubate for 1 hr at RT. Plates were then washed with 4×PBST and an HRP conjugated avidin secondary reagent was added for 30 min at room temperature. Plates were washed again with 4×PBST and then developed using TMB substrate and 1M HCl.

IC50 [nM] | Binder
16.6 | B2
24.4 | B4
